The target in test [1] is FcγRIIB (SPR assay) (UniProt P31994). The test can be described thus: SPR; FcγRIIA, FcγRIIB, FcγRIIIA; KD determined by the analyte concentration at which half of the ligands are occupied at equilibrium.
Test [2] has as its target FcγRIIA H131 (SPR assay) (UniProt P12318). The description is as above.
Test [3] deals with FcγRIIA R131 (SPR assay). Described as above.
Test [4] addresses FcγRIIIA F158 (UniProt P08637). The description is as above.
For test [5], the target named is FcγRIIIA V158. Described as above.
In test [6] the target is FcγRI (SPR assay) (UniProt P12314). Put plainly: SPR; FcγRI; KD calculated from the ratio of the kinetic constants (KD = koff/kon).
Sequence of UniProt P12314 (P12314 16-374): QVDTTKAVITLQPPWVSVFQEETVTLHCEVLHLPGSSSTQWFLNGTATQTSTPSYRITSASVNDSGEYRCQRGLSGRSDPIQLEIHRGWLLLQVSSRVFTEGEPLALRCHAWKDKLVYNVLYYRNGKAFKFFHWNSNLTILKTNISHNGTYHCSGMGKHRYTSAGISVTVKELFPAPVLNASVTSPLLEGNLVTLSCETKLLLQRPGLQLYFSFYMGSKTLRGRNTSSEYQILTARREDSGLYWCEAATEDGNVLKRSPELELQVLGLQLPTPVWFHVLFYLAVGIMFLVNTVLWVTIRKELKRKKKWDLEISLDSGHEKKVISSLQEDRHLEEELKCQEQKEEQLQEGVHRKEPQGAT

Sequence of UniProt P31994 (P31994 43-310): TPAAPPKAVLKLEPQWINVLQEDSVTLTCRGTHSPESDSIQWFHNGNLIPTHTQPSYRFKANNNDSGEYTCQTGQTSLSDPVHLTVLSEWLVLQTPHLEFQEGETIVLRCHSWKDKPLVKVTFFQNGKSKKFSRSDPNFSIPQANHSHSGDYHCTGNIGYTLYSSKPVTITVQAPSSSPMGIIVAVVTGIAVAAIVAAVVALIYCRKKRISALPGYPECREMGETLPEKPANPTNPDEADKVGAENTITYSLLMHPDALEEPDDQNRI
Sequence of UniProt P12318 (P12318 34-317): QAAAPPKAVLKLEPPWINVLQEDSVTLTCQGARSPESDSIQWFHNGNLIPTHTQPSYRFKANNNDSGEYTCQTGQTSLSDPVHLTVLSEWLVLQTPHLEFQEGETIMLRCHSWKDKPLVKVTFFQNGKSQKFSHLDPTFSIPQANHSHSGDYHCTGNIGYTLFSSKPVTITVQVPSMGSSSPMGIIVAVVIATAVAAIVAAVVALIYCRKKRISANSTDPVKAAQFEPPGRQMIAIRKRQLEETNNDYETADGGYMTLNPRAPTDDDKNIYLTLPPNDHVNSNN
Sequence of UniProt P08637 (P08637 17-254): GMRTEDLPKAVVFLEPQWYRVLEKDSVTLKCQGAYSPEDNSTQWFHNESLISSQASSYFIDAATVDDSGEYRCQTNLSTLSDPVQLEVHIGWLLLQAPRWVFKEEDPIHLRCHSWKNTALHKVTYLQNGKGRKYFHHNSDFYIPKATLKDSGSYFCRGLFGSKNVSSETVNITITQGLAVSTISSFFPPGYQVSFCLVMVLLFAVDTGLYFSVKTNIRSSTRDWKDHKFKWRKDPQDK

On to “Ociperlimab (BGB-A1217), humanized IgG1 anti-human TIGIT antibody with wild-type IgG1 Fc”, for which the Kd stood at 2840 nM in test [1] and 965 nM in test [2].

B1: Ociperlimab (BGB-A1217), humanized IgG1 anti-human TIGIT antibody with wild-type IgG1 Fc (antibody, V domains shown)
VH: EVQLVESGGGLVQPGGSLRLSCAASGFTFSDYYMYWVRQAPGKGLEWVAYITKGGGSTYYPDSVKGRFTISRDNAKNTLYLQMNSLRAEDTAVYYCARQTNYDFTMDYWGQGTLVTVSS
VL: EIVMTQSPATLSVSPGERATLSCKASQDVGTSVAWYQQKPGQAPRLLIYWASARHTGIPARFSGSGSGTEFTLTISSLQSEDFAVYYCQQYSSYPLTFGGGTKVEIK
Regarding B1, the Kd was 1020 nM in test [3], 2180 nM in test [4], 555 nM in test [5] and 0.0406 nM in test [6].

Usually Kd stands for the equilibrium constant for the complex coming apart.
